Data on 77 sequences can be found in the supplement of paper PMC7877785.

± gives the uncertainty stated by the source.

The nature of this data set: self-splicing fitness, log relative to wild type (ln ratio); higher = more splicing; Tetrahymena group I intron in knt gene, E. coli kanamycin selection, DiMSum; sequences stand for … in CUCUCU…GGAGGGAAAAGUUAUCAGGCAUGCACCUGGUAGCUAGUCUUUAAACCAAUAGAUUGCAUCGGUUUAAAAGGCAAGACCGUCAAAUUGCGGGAAAGGGGUCAACAGCCGUUCAGUACCAAGUCUCAGGGGAAACUUUGAGAUGGCCUUGCAAAGGGUAUGGUAAUAAGCUGACGGACAUGGUCCUAACCACGCAGCCAAGUCCUAAGUCAACAGAUCUUCUGUUGAUAUGGAUGCAGUUCACAGACUAAAUGUCGGUCGGGGAAGAUGUAUUCUUCUCAUAAGAUAUAGUCGGACCUCUCCUUAAUGGGAGCUAGCGGAUGAAGUGAUGCAACACUGGAGCCGCUGGGAACUAAUUUGUAUGCGAAAGUAUAUUGAUUAGUUUUGGAGUACUCGUGGUCG
The essentials:
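The eight P1ex-region nucleotides of an intron in the knt kanamycin-resistance gene on pET-22b(+) were all randomised and the library put into E. coli BL21(DE3). Six replicate transformations were grown overnight at 37°C or 30°C on LB agar with or without 25 μg/mL kanamycin, together with 100 μg/mL carbenicillin, 50 μM IPTG and 0.2% rhamnose. Colonies were pooled and amplicon-sequenced on an Illumina HiSeq 2500. Fitness from DiMSum is the error-weighted combination of wild-type-normalised replicate fold changes, kanamycin over none.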

Regarding GCAGAGCAAUAUUACGCCGA, the “self-splicing fitness (ln)” value (37 °C) is -0.676 ± 0.34. CCGCAGCAAUAUUACGCUGA: the “self-splicing fitness (ln)” value (30 °C) is -3.21 ± 0.34. As to UACGAGCAAUAUUACGAAAA, the “self-splicing fitness (ln)” value (30 °C) was -3.03 ± 0.44 and the “self-splicing fitness (ln)” value (37 °C) was -2.28 ± 0.39.

On to UUAGAGCAAUAUUACGGGAC, for which the “self-splicing fitness (ln)” value by setting is: (30 °C) -3.75 ± 0.36; (37 °C) -2.8 ± 0.22. The like results for AACUAGCAAUAUUACGGUCA were, in that order, -0.313 ± 0.074 and 0.442 ± 0.093. Consider AUACAGCAAUAUUACGUAGG, for which the “self-splicing fitness (ln)” value is, setting by setting: (30 °C) -2.13 ± 0.11; (37 °C) -0.536 ± 0.12. The like results for AGUUAGCAAUAUUACGAUGC were, in that order, -1.75 ± 0.2 and -0.0326 ± 0.17. The like results for UGUUAGCAAUAUUACGUUUA were, in that order, -1.78 ± 0.09 and -0.902 ± 0.098. As for ACUUAGCAAUAUUACGAUCC, the “self-splicing fitness (ln)” value was -1.9 ± 0.15 (30 °C) and -0.595 ± 0.2 (37 °C). The like results for UCGCAGCAAUAUUACGGUAU were, in that order, -3.36 ± 0.17 and -1.78 ± 0.21. For CGUGAGCAAUAUUACGGAGC, the “self-splicing fitness (ln)” value (30 °C) is -2.97 ± 0.36. Turning to AAACAGCAAUAUUACGACGG, the “self-splicing fitness (ln)” value is, setting by setting: (30 °C) -3.02 ± 0.092; (37 °C) -1.13 ± 0.087. The like results for UCUGAGCAAUAUUACGGCGU were, in that order, -1.82 ± 0.1 and -0.983 ± 0.14. The like results for AUACAGCAAUAUUACGUUCA were, in that order, -0.878 ± 0.07 and -0.304 ± 0.071.

GGGUAGCAAUAUUACGCAUC: the “self-splicing fitness (ln)” value by setting is: (30 °C) -2.34 ± 0.29; (37 °C) -2.48 ± 0.24. Turning to CAGAAGCAAUAUUACGGGUG, the “self-splicing fitness (ln)” value by setting is: (30 °C) -0.824 ± 0.064; (37 °C) -0.429 ± 0.08.

For the sequence UCAGAGCAAUAUUACGACAU, the “self-splicing fitness (ln)” value runs as follows: (30 °C) -4.002 ± 0.035; (37 °C) -2.6 ± 0.045. Regarding AAAGAGCAAUAUUACGUGGC, the “self-splicing fitness (ln)” value (30 °C) is -2.86 ± 0.23. GAGGAGCAAUAUUACGGUGC: the “self-splicing fitness (ln)” value is -3.87 ± 0.28 (30 °C) and -2.32 ± 0.15 (37 °C). Take AGCAAGCAAUAUUACGGACU: the “self-splicing fitness (ln)” value reads like this: (30 °C) -0.137 ± 0.084; (37 °C) -0.455 ± 0.094. The like results for GCCAAGCAAUAUUACGUCGA were, in that order, -2.34 ± 0.16 and -1.29 ± 0.14. The like results for UCGUAGCAAUAUUACGCGUU were, in that order, -2.91 ± 0.26 and -2.18 ± 0.26. For CGCUAGCAAUAUUACGAUGA, the “self-splicing fitness (ln)” value runs as follows: (30 °C) -1.14 ± 0.1; (37 °C) -0.401 ± 0.087. The like results for GAGGAGCAAUAUUACGAUGA were, in that order, -2.31 ± 0.24 and -1.42 ± 0.35. The like results for AGCUAGCAAUAUUACGGACG were, in that order, -0.719 ± 0.075 and -0.105 ± 0.1. The like results for CCUAAGCAAUAUUACGUCAU were, in that order, -4.09 ± 0.22 and -2.83 ± 0.22. ACUUAGCAAUAUUACGGGCG: the “self-splicing fitness (ln)” value (30 °C) was -0.769 ± 0.078 and the “self-splicing fitness (ln)” value (37 °C) is -0.483 ± 0.085.

Take UAGAAGCAAUAUUACGUUGA: the “self-splicing fitness (ln)” value is -2.99 ± 0.23 (30 °C) and -1.62 ± 0.18 (37 °C). The like results for UUAAAGCAAUAUUACGGCCA were, in that order, -0.086 ± 0.13 and -0.188 ± 0.17. In the case of CGUGAGCAAUAUUACGCGGC, the “self-splicing fitness (ln)” value is, setting by setting: (30 °C) -2.91 ± 0.24; (37 °C) -3.19 ± 0.28. The like results for CCGCAGCAAUAUUACGACAG were, in that order, -0.485 ± 0.063 and 0.0928 ± 0.088. The like results for CGGCAGCAAUAUUACGUCGU were, in that order, -3.21 ± 0.2 and -2.64 ± 0.21. The like results for GUCAAGCAAUAUUACGACUC were, in that order, -1.73 ± 0.15 and -0.881 ± 0.15.

On to UUGCAGCAAUAUUACGGCAG, for which the “self-splicing fitness (ln)” value runs as follows: (30 °C) -0.754 ± 0.14; (37 °C) -1.27 ± 0.17. Consider GGCAAGCAAUAUUACGAACU, for which the “self-splicing fitness (ln)” value is -1.18 ± 0.16 (30 °C) and 0.413 ± 0.14 (37 °C). The like results for CUUUAGCAAUAUUACGGCAG were, in that order, -0.944 ± 0.12 and -0.552 ± 0.14. The like results for AAAUAGCAAUAUUACGUGUG were, in that order, -2.05 ± 0.09 and -1.55 ± 0.086. For the sequence CGCUAGCAAUAUUACGCUAC, under “37 °C”, the “self-splicing fitness (ln)” value was -2.29 ± 0.5. For CCCUAGCAAUAUUACGAGUU, the “self-splicing fitness (ln)” value is -2.39 ± 0.14 (30 °C) and -3.11 ± 0.2 (37 °C). The like results for GGCCAGCAAUAUUACGUGUG were, in that order, -1.15 ± 0.051 and -0.323 ± 0.066. As to CAACAGCAAUAUUACGUUGG, the “self-splicing fitness (ln)” value runs as follows: (30 °C) -2.86 ± 0.096; (37 °C) -1.5 ± 0.095. As for AAGGAGCAAUAUUACGAGCU, the “self-splicing fitness (ln)” value (37 °C) was -0.204 ± 0.24. Turning to GGCAAGCAAUAUUACGUAUU, the “self-splicing fitness (ln)” value by setting is: (30 °C) -0.415 ± 0.06; (37 °C) -0.183 ± 0.074. The like results for GGGAAGCAAUAUUACGUGGG were, in that order, -3.64 ± 0.29 and -2.46 ± 0.24. The like results for CGCCAGCAAUAUUACGUCAU were, in that order, -4.39 ± 0.19 and -3.12 ± 0.18.

Regarding ACGAAGCAAUAUUACGACCA, the “self-splicing fitness (ln)” value (30 °C) was -0.752 ± 0.15 and the “self-splicing fitness (ln)” value (37 °C) is -0.848 ± 0.13.

As to ACCGAGCAAUAUUACGGACU, the “self-splicing fitness (ln)” value is -0.27 ± 0.073 (30 °C) and 0.614 ± 0.1 (37 °C). Take UCACAGCAAUAUUACGUAUA: the “self-splicing fitness (ln)” value was -2.64 ± 0.12 (30 °C) and -1.37 ± 0.1 (37 °C).

As for AAAAAGCAAUAUUACGGCAA, the “self-splicing fitness (ln)” value is, setting by setting: (30 °C) -0.286 ± 0.092; (37 °C) 0.328 ± 0.12. The like results for UUCCAGCAAUAUUACGUUAU were, in that order, -3.08 ± 0.12 and -1.95 ± 0.15. The like results for GAUCAGCAAUAUUACGCUUA were, in that order, -0.551 ± 0.12 and 0.0926 ± 0.13. Regarding CGGUAGCAAUAUUACGGGUC, the “self-splicing fitness (ln)” value (30 °C) was -4.51 ± 0.46 and the “self-splicing fitness (ln)” value (37 °C) is -4.33 ± 0.39. The like results for GAAUAGCAAUAUUACGUCUC were, in that order, -0.581 ± 0.11 and -0.137 ± 0.16.

As to AAGGAGCAAUAUUACGUUUA, the “self-splicing fitness (ln)” value (30 °C) was -2.95 ± 0.24 and the “self-splicing fitness (ln)” value (37 °C) was -1.66 ± 0.16.

For UAGUAGCAAUAUUACGCCCU, the “self-splicing fitness (ln)” value was -1.34 ± 0.21 (30 °C) and -0.583 ± 0.2 (37 °C). The like results for GCUUAGCAAUAUUACGCCAG were, in that order, -1.89 ± 0.33 and -1.76 ± 0.33. The like results for GGAUAGCAAUAUUACGGAGG were, in that order, -3.06 ± 0.2 and -2.77 ± 0.3.

UAAGAGCAAUAUUACGGCAU: the “self-splicing fitness (ln)” value reads like this: (30 °C) -2.3 ± 0.39; (37 °C) -1 ± 0.3. Turning to CGCAAGCAAUAUUACGUUUU, the “self-splicing fitness (ln)” value (30 °C) was -4.46 ± 0.15 and the “self-splicing fitness (ln)” value (37 °C) is -2.83 ± 0.16. On to UAUUAGCAAUAUUACGAACA, for which the “self-splicing fitness (ln)” value reads like this: (30 °C) -0.315 ± 0.16; (37 °C) 0.101 ± 0.14. The like results for GACGAGCAAUAUUACGAUCA were, in that order, -2.22 ± 0.36 and -0.86 ± 0.23. For ACUAAGCAAUAUUACGCGAU, the “self-splicing fitness (ln)” value was -2.98 ± 0.15 (30 °C) and -1.82 ± 0.2 (37 °C). GUGCAGCAAUAUUACGUGAA: the “self-splicing fitness (ln)” value (30 °C) is -0.187 ± 0.1 and the “self-splicing fitness (ln)” value (37 °C) was -1.19 ± 0.14. Consider UCGUAGCAAUAUUACGAAGC, for which, for the setting “37 °C”, the “self-splicing fitness (ln)” value was -1.29 ± 0.35. Take AGUCAGCAAUAUUACGCACG: the “self-splicing fitness (ln)” value (30 °C) is -1.02 ± 0.12 and the “self-splicing fitness (ln)” value (37 °C) is -0.646 ± 0.15. The like results for UUAAAGCAAUAUUACGCAAG were, in that order, -0.46 ± 0.1 and 0.145 ± 0.14.

Regarding GGACAGCAAUAUUACGCGAG, the “self-splicing fitness (ln)” value is, setting by setting: (30 °C) -1.24 ± 0.058; (37 °C) -0.0238 ± 0.063.

As to CGUUAGCAAUAUUACGGAUG, the “self-splicing fitness (ln)” value (30 °C) is -1.85 ± 0.11 and the “self-splicing fitness (ln)” value (37 °C) was -1.37 ± 0.14. The like results for GCCGAGCAAUAUUACGGGCC were, in that order, -3.59 ± 0.32 and -1.99 ± 0.41.

On to GGUCAGCAAUAUUACGCCCU, for which the “self-splicing fitness (ln)” value reads like this: (30 °C) -0.704 ± 0.14; (37 °C) 0.198 ± 0.17. As for AACAAGCAAUAUUACGAAUG, the “self-splicing fitness (ln)” value by setting is: (30 °C) -3 ± 0.14; (37 °C) -1.97 ± 0.12.

For the sequence CCUCAGCAAUAUUACGCCAA, the “self-splicing fitness (ln)” value (30 °C) is -2.26 ± 0.23.

For ACAAAGCAAUAUUACGCUGA, the “self-splicing fitness (ln)” value (30 °C) was -2.65 ± 0.2 and the “self-splicing fitness (ln)” value (37 °C) is -1.14 ± 0.15. The like results for GAAAAGCAAUAUUACGGAGA were, in that order, -3.59 ± 0.26 and -2.19 ± 0.21. The like results for CAUAAGCAAUAUUACGUUGC were, in that order, -4.07 ± 0.3 and -3.3 ± 0.3.

As to AAUUAGCAAUAUUACGGCCG, the “self-splicing fitness (ln)” value by setting is: (30 °C) -0.532 ± 0.18; (37 °C) 0.571 ± 0.28. CGCCAGCAAUAUUACGAGAG: the “self-splicing fitness (ln)” value by setting is: (30 °C) -3.58 ± 0.13; (37 °C) -1.37 ± 0.098.
